According to article PMC9325545, “Structure and Mutation of the Native Amine Dehydrogenase MATOUAmDH2” (Chembiochem, 2022):

Target: MATOUAmDH2 (native amine dehydrogenase from the Marine Atlas of Tara Oceans Unigenes, MATOUv1)
Experiment: crystal structure; complex with NADP+; space group P2(1)2(1)2(1); four molecules in the asymmetric unit, two dimers (A/D and B/C)

**Q.** How did the stoichiometry N turn out when “MATOUAmDH2 (native amine dehydrogenase from the Marine Atlas of Tara Oceans Unigenes, MATOUv1) (enzyme)” was run?
**A.** 2
